Results reported in PMC7367873, “Dissecting the sequence determinants for dephosphorylation by the catalytic subunits of phosphatases PP1 and PP2A” (Nature Communications, 2020).

B1: DDX3X;DDX3Y (protein, UniProt O00571 2-662, looked up)
ATP-dependent RNA helicase …: SHVAVENALGLDQQFAGLDLNSSDNQSGGSTASKGRYIPPHLRNREATKGFYDKDSSGWSSSKDKDAYSSFGSRSDSRGKSSFFSDRGSGSRGRFDDRGRSDYDGIGSRGDRSGFGKFERGGNSRWCDKSDEDDWSKPLPPSERLEQELFSGGNTGINFEKYDDIPVEATGNNCPPHIESFSDVEMGEIIMGNIELTRYTRPTPVQKHAIPIIKEKRDLMACAQTGSGKTAAFLLPILSQIYSDGPGEALRAMKENGRYGRRKQYPISLVLAPTRELAVQIYEEARKFSYRSRVRPCVVYGGADIGQQIRDLERGCHLLVATPGRLVDMMERGKIGLDFCKYLVLDEADRMLDMGFEPQIRRIVEQDTMPPKGVRHTMMFSATFPKEIQMLARDFLDEYIFLAVGRVGSTSENITQKVVWVEESDKRSFLLDLLNATGKDSLTLVFVETKKGADSLEDFLYHEGYACTSIHGDRSQRDREEALHQFRSGKSPILVATAVAARGLDISNVKHVINFDLPSDIEEYVHRIGRTGRVGNLGLATSFFNERNINITKDLLDLLVEAKQEVPSWLENMAYEHHYKGSSRGRSKSSRFSGGFGARDYRQSSGASSSSFSSSRASSSRSGGGGHGSSRGFGGGGYGGFYNSDGYGGNYNSQGVDWWGN
modifications: or DDX3Y
B2: RRBP1 (protein, UniProt Q9P2E9 1-1410, looked up)
Ribosome-binding protein 1: MDIYDTQTLGVVVFGGFMVVSAIGIFLVSTFSMKETSYEEALANQRKEMAKTHHQKVEKKKKEKTVEKKGKTKKKEEKPNGKIPDHDPAPNVTVLLREPVRAPAVAVAPTPVQPPIIVAPVATVPAMPQEKLASSPKDKKKKEKKVAKVEPAVSSVVNSIQVLTSKAAILETAPKEVPMVVVPPVGAKGNTPATGTTQGKKAEGTQNQSKKAEGAPNQGRKAEGTPNQGKKTEGTPNQGKKAEGTPNQGKKAEGTPNQGKKAEGAQNQGKKVDTTPNQGKKVEGAPTQGRKAEGAQNQAKKVEGAQNQGKKAEGAQNQGKKGEGAQNQGKKAEGAQNQGKKAEGAQNQGKKAEGAQNQGKKAEGAQNQGKKAEGAQNQGKKAEGAQNQGKKVEGAQNQGKKAEGAQNQGKKAEGAQNQGKKAEGAQNQGKKAEGAQNQGKKAEGAQNQGKKAEGAQNQGKKAEGAQNQGKKVEGAQNQGKKAEGAQNQGKKAEGAQNQGKKAEGAQNQGQKGEGAQNQGKKTEGAQGKKAERSPNQGKKGEGAPIQGKKADSVANQGTKVEGITNQGKKAEGSPSEGKKAEGSPNQGKKADAAANQGKKTESASVQGRNTDVAQSPEAPKQEAPAKKKSGSKKKGEPGPPDADGPLYLPYKTLVSTVGSMVFNEGEAQRLIEILSEKAGIIQDTWHKATQKGDPVAILKRQLEEKEKLLATEQEDAAVAKSKLRELNKEMAAEKAKAAAGEAKVKKQLVAREQEITAVQARMQASYREHVKEVQQLQGKIRTLQEQLENGPNTQLARLQQENSILRDALNQATSQVESKQNAELAKLRQELSKVSKELVEKSEAVRQDEQQRKALEAKAAAFEKQVLQLQASHRESEEALQKRLDEVSRELCHTQSSHASLRADAEKAQEQQQQMAELHSKLQSSEAEVRSKCEELSGLHGQLQEARAENSQLTERIRSIEALLEAGQARDAQDVQASQAEADQQQTRLKELESQVSGLEKEAIELREAVEQQKVKNNDLREKNWKAMEALATAEQACKEKLLSLTQAKEESEKQLCLIEAQTMEALLALLPELSVLAQQNYTEWLQDLKEKGPTLLKHPPAPAEPSSDLASKLREAEETQSTLQAECDQYRSILAETEGMLRDLQKSVEEEEQVWRAKVGAAEEELQKSRVTVKHLEEIVEKLKGELESSDQVREHTSHLEAELEKHMAAASAECQNYAKEVAGLRQLLLESQSQLDAAKSEAQKQSDELALVRQQLSEMKSHVEDGDIAGAPASSPEAPPAEQDPVQLKTQLEWTEAILEDEQTQRQKLTAEFEEAQTSACRLQEELEKLRTAGPLESSETEEASQLKERLEKEKKLTSDLGRAATRLQELLKTTQEQLAREKDTVKKLQEQLEKAEDGSSSKEGTSV
B3: MMS19 (protein, UniProt Q96T76 2-1030, looked up)
MMS19 nucleotide excision …: AAAAAVEAAAPMGALWGLVHDFVVGQQEGPADQVAADVKSGNYTVLQVVEALGSSLENPEPRTRARAIQLLSQVLLHCHTLLLEKEVVHLILFYENRLKDHHLVIPSVLQGLKALSLCVALPPGLAVSVLKAIFQEVHVQSLPQVDRHTVYNIITNFMRTREEELKSLGADFTFGFIQVMDGEKDPRNLLVAFRIVHDLISRDYSLGPFVEELFEVTSCYFPIDFTPPPNDPHGIQREDLILSLRAVLASTPRFAEFLLPLLIEKVDSEVLSAKLDSLQTLNACCAVYGQKELKDFLPSLWASIRREVFQTASERVEAEGLAALHSLTACLSRSVLRADAEDLLDSFLSNILQDCRHHLCEPDMKLVWPSAKLLQAAAGASARACDSVTSNVLPLLLEQFHKHSQSSQRRTILEMLLGFLKLQQKWSYEDKDQRPLNGFKDQLCSLVFMALTDPSTQLQLVGIRTLTVLGAQPDLLSYEDLELAVGHLYRLSFLKEDSQSCRVAALEASGTLAALYPVAFSSHLVPKLAEELRVGESNLTNGDEPTQCSRHLCCLQALSAVSTHPSIVKETLPLLLQHLWQVNRGNMVAQSSDVIAVCQSLRQMAEKCQQDPESCWYFHQTAIPCLLALAVQASMPEKEPSVLRKVLLEDEVLAAMVSVIGTATTHLSPELAAQSVTHIVPLFLDGNVSFLPENSFPSRFQPFQDGSSGQRRLIALLMAFVCSLPRNVEIPQLNQLMRELLELSCCHSCPFSSTAAAKCFAGLLNKHPAGQQLDEFLQLAVDKVEAGLGSGPCRSQAFTLLLWVTKALVLRYHPLSSCLTARLMGLLSDPELGPAAADGFSLLMSDCTDVLTRAGHAEVRIMFRQRFFTDNVPALVQGFHAAPQDVKPNYLKGLSHVLNRLPKPVLLPELPTLLSLLLEALSCPDCVVQLSTLSCLQPLLLEAPQVMSLHVDTLVTKFLNLSSSPSMAVRIAALQCMHALTRLPTPVLLPYKPQVIRALAKPLDDKKRLVRKEAVSARGEWFLLGSPGS
B4: NOP58 (protein, UniProt Q9Y2X3 1-529, looked up)
Nucleolar protein 58: MLVLFETSVGYAIFKVLNEKKLQEVDSLWKEFETPEKANKIVKLKHFEKFQDTAEALAAFTALMEGKINKQLKKVLKKIVKEAHEPLAVADAKLGGVIKEKLNLSCIHSPVVNELMRGIRSQMDGLIPGVEPREMAAMCLGLAHSLSRYRLKFSADKVDTMIVQAISLLDDLDKELNNYIMRCREWYGWHFPELGKIISDNLTYCKCLQKVGDRKNYASAKLSELLPEEVEAEVKAAAEISMGTEVSEEDICNILHLCTQVIEISEYRTQLYEYLQNRMMAIAPNVTVMVGELVGARLIAHAGSLLNLAKHAASTVQILGAEKALFRALKSRRDTPKYGLIYHASLVGQTSPKHKGKISRMLAAKTVLAIRYDAFGEDSSSAMGVENRAKLEARLRTLEDRGIRKISGTGKALAKTEKYEHKSEVKTYDPSGDSTLPTCSKKRKIEQVDKEDEITEKKAKKAKIKVKVEEEEEEKVAEEEETSVKKKKKRGKKKHIKEEPLSEEEPCTSTAIASPEKKKKKKKKRENED
B5: BBX (protein, UniProt Q8WY36 1-941, looked up)
HMG box transcription factor …: MKGSNRNKDHSAEGEGVGKRPKRKCLQWHPLLAKKLLDFSEEEEEEDEEEDIDKVQLLGADGLEQDVGETEDDESPEQRARRPMNAFLLFCKRHRSLVRQEHPRLDNRGATKILADWWAVLDPKEKQKYTDMAKEYKDAFMKANPGYKWCPTTNKPVKSPTPTVNPRKKLWAFPSDSSRDLPSPKKAKTEEMPQLNFGMADPTQMGGLSMLLLAGEHALGTPEVSSGTCRPDVSESPELRQKSPLFQFAEISSSTSHSDASTKQCQTSALFQFAEISSNTSQLGGAEPVKRCGKSALFQLAEMCLASEGMKMEESKLIKAKESDGGRIKELEKGKEEKEIKMEKTDETRLQKEAEFEKSAKENLRDSKELRNFEALQIDDIMAIKMEDPKEIRKEELEEDHKCSHFPDFSYSASSKIIISDVPSRKDHMCHPHGIMIIEDPAALNKPEKLKKKKKKSKMDRHGNDKSTPKKTCKKRQSSESDIESVIYTIEAVAKGDWGIEKLGDTPRKKVRTSSSGKGSILDAKPPKKKVKSREKKMSKEKSSDTTKESRPPDFISISASKNISGETPEGIKAEPLTPMEDALPPSLSGQAKPEDSDCHRKIETCGSRKSERSCKGALYKTLVSEGMLTSLRANVDRGKRSSGKGNSSDHEGCWNEESWTFSQSGTSGSKKFKKTKPKEDCLLGSAKLDEEFEKKFNSLPQYSPVTFDRKCVPVPRKKKKTGNVSSEPTKTSKGPFQSQKKNLFHKIVSKYKHKKEKPNVPEKGSGDKWSNKQLFLDAIHPTEAIFSEDRNTMEPVHKVKNIPSIFNTPEPTTTQEPLVGSQKRKARKTKITHLVRTADGRVSPAGGTLDDKPKEQLQRSLPKATETDCNDKCSHNTEVGETRSSTPEMPAVSAFFSLAALAEVAAMENVHRGQRSTPLTHDGQPKEMPQAPVLISCADQ
B6: DDX20 (protein, UniProt Q9UHI6 1-824, looked up)
Probable ATP-dependent RNA …: MAAAFEASGALAAVATAMPAEHVAVQVPAPEPTPGPVRILRTAQDLSSPRTRTGDVLLAEPADFESLLLSRPVLEGLRAAGFERPSPVQLKAIPLGRCGLDLIVQAKSGTGKTCVFSTIALDSLVLENLSTQILILAPTREIAVQIHSVITAIGIKMEGLECHVFIGGTPLSQDKTRLKKCHIAVGSPGRIKQLIELDYLNPGSIRLFILDEADKLLEEGSFQEQINWIYSSLPASKQMLAVSATYPEFLANALTKYMRDPTFVRLNSSDPSLIGLKQYYKVVNSYPLAHKVFEEKTQHLQELFSRIPFNQALVFSNLHSRAQHLADILSSKGFPAECISGNMNQNQRLDAMAKLKHFHCRVLISTDLTSRGIDAEKVNLVVNLDVPLDWETYMHRIGRAGRFGTLGLTVTYCCRGEEENMMMRIAQKCNINLLPLPDPIPSGLMEECVDWDVEVKAAVHTYGIASVPNQPLKKQIQKIERTLQIQKAHGDHMASSRNNSVSGLSVKSKNNTKQKLPVKSHSECGIIEKATSPKELGCDRQSEEQMKNSVQTPVENSTNSQHQVKEALPVSLPQIPCLSSFKIHQPYTLTFAELVEDYEHYIKEGLEKPVEIIRHYTGPGDQTVNPQNGFVRNKVIEQRVPVLASSSQSGDSESDSDSYSSRTSSQSKGNKSYLEGSSDNQLKDSESTPVDDRISLEQPPNGSDTPNPEKYQESPGIQMKTRLKEGASQRAKQSRRNLPRRSSFRLQTEAQEDDWYDCHREIRLSFSDTYQDYEEYWRAYYRAWQEYYAAASHSYYWNAQRHPSWMAAYHMNTIYLQEMMHSNQ
B7: SSR4 (protein, UniProt P51571 24-173, looked up)
Translocon-associated protein …: EACLEPQITPSYYTTSDAVISTETVFIVEISLTCKNRVQNMALYADVGGKQFPVTRGQDVGRYQVSWSLDHKSAHAGTYEVRFFDEESYSLLRKAQRNNEDISIIPPLFTVSVDHRGTWNGPWVSTEVLAAAIGLVIYYLAFSAKSHIQA

test system: GFP-14-3-3β and its binding proteins; assay: GFP-14-3-3β co-IP with LC-MS/MS label-free quantification, untreated versus PP1c-treated; parameters: species or system human; conditions: PP1 vs untreated; LFQ intensities; 3 replicates each

| Molecule | Difference (log2), PP1 vs untreated [log2] |
| --- | --- |
| B1 | 0.6546 |
| B2 | 0.6577 |
| B3 | 0.6094 |
| B4 | 0.6296 |
| B5 | 0.6283 |

same assay, conditions: log2 difference; pairwise comparison PP1 vs untreated, label-free quantification, 3 replicates each

| Molecule | Difference (log2), PP1 vs untreated |
| --- | --- |
| B6 | 2.218 |
| B7 | 2.257 |

test system: GFP-14-3-3β; assay: GFP-14-3-3β co-IP with LC-MS/MS, untreated GFP-14-3-3β versus GFP control (14-3-3 interactome); assay type: binding, human; conditions: log2 difference; pairwise comparison untreated vs GFP, label-free quantification, 3 replicates each

| Molecule | Difference (log2), untreated vs GFP |
| --- | --- |
| B6 | -0.1781 |
| B7 | 0.4182 |

same assay, conditions: untreated vs GFP; LFQ intensities; 3 replicates each

| Molecule | Difference (log2), untreated vs GFP [log2] |
| --- | --- |
| B1 | 0.1796 |
| B2 | -0.1928 |
| B3 | 1.425 |
| B4 | 1.325 |
| B5 | 0.1239 |
